The values below come from paper doi:10.1101/2020.08.07.241737 (bioRxiv, 2020).

The target in the test is T1, COP1-His recombinant protein (Arabidopsis thaliana, UniProt P43254 1-675).
T1 sequence (looked up): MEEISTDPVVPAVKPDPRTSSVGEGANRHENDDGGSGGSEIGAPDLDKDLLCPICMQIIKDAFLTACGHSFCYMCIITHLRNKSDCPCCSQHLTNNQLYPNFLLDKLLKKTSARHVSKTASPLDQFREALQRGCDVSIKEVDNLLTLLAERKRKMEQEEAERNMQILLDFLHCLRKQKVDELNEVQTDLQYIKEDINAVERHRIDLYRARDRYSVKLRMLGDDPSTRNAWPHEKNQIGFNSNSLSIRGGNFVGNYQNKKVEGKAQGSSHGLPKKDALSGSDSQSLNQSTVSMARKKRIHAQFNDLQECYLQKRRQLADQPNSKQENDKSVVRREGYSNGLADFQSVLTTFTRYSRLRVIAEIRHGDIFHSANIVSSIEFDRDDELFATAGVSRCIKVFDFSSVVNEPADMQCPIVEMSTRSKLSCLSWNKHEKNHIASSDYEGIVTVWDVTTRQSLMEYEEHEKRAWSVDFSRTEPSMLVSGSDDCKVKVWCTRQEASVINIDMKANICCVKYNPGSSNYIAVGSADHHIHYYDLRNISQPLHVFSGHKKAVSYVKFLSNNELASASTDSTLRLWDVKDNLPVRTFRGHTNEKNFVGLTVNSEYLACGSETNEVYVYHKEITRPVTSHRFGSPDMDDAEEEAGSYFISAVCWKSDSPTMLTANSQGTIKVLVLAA
Kind of test: pull-down.

B1: GST-HDA15 recombinant protein (enzyme, Arabidopsis thaliana, UniProt Q8GXJ1 1-552, looked up)
chain: MVVETIERSCEGSKRRHVNGGDIAVPCSGEECSNGDINVAPGVSAKRARVSREMTFEDIYGADALLNDDDDEDDDCDWEPVQAPMEFVKWCCVNCTMSNPGDMVHCCICGEHKESGILRHGYLASPFFKDTGLIEVEEKYGGSSSATSSTAVGFDERMLLHSEFEVKAQPHPERPDRLRAIAASLATAGVFPGRCLPINAREITKQELQMVHTSEHVDAVDTTSQLLYSYFTSDTYANEYSARAARLAAGLCADLATDIFTGRVKNGFALVRPPGHHAGVRHAMGFCLHNNAAVAALVAQAAGAKKVLIVDWDVHHGNGTQEIFEQNKSVLYISLHRHEGGNFYPGTGAADEVGSNGGEGYCVNVPWSCGGVGDKDYIFAFQHVVLPIASAFSPDFVIISAGFDAARGDPLGCCDVTPAGYSRMTQMLGDLCGGKMLVILEGGYNLRSISASATAVIKVLLGENPENELPIATTPSVAGLQTVLDVLNIQLEFWPSLAISYSKLLSELEARLIENKKNQMKRKVVRVPTWWKWGRKKLLYNFLSARMISRSK
B1: the binding result was “binds”.
